In assay [1] the target is T1, GST (glutathione-S-transferase alone, on glutathione beads) (UniProt P08515 1-218 = GST).
T1 construct: Control protein; also called GST tag
The assay can be described thus: GST pulldown from HeLa lysates, immunoblot with anti-GFP. The protocol:
(§1) GST pulldown, immunoprecipitation and immunoblotting analysis were performed as described (Lu et al., 1999; Shen et al., 1998). Briefly, relevant proteins were expressed in HeLa or HT1080 cells by transient transfection, or translated in vitro using the TNT coupled transcription/translation kit (Promega) in the presence of [³⁵S]-Met, followed by lysis or dilution in a buffer containing 50 mM HEPES, pH 7.5, 150 mM NaCl, 100 mM NaF, 1 mM sodium orthovanadate, 10% glycerol, 1% Triton X100, 10 μg/ml aprotinin, 10 μg/ml leupeptin, 50 μg/ml phenylmethylsulfonyl fluoride and 1 mM DTT. The cellular supernatants were incubated with 1 μM GST or GST fusion proteins for 1 hr at 4° C. and 15 μl of glutathione agarose beads were then added, followed by further incubation for 2 h at 4° C. The precipitated proteins were washed 4 times in the same buffer and subjected to immunoblotting analysis. Other antibodies used for immunoprecipitation and immunoblotting analysis include anti-Pin2/TRF1 (Shen et al., 1997) and anti-hTERT antibodies (Novus). Membranes containing RNAs isolated from different human tissues (Clontech) were hybridized to the C-terminal coding sequence of PinX1 and then stripped, followed by reprobing with the house-keeping gene GAPDH for loading control.
(§2) To map the region in PinX1 that interacts with Pin2, we expressed different PinX1 fragments in HeLa cells as GFP fusion proteins (FIG. 3E), and then subjected them to GST pulldown experiments with GST-Pin2.
(Immunoblotting shows a protein as a band on a membrane.)

The target in the next assay is T2, GST-Pin2 (human, UniProt P54274 2-439).
T2 construct: Produced as described in Shen et al., 1997; also called GST-Pin2 beads (Pin2); not shown: glutathione-S-transferase (GST) tag
T2 sequence: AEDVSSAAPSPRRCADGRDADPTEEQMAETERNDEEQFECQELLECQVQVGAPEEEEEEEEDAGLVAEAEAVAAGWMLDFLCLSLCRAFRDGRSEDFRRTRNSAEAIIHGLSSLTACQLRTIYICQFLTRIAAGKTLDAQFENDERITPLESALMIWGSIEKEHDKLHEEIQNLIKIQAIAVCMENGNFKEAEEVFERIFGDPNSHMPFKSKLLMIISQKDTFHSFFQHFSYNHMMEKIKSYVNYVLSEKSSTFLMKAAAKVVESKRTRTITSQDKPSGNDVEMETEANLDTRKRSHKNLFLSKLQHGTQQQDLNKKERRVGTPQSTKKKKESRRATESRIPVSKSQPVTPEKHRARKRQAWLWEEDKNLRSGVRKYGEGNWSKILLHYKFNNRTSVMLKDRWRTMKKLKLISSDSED
Described as above. The protocol: as §1, §2

The target of assay [2] is telomerase of HT1080 cells (telomerase-containing fraction, or cellular telomerase in stable HT1080 lines) (human, UniProt O14746 1-1132, limits assumed). The assay can be described thus: cell-based or functional assay.
Sequence of telomerase of HT1080 cells (telomerase-containing fraction, or cellular telomerase in stable HT1080 lines) (O14746 whole entry): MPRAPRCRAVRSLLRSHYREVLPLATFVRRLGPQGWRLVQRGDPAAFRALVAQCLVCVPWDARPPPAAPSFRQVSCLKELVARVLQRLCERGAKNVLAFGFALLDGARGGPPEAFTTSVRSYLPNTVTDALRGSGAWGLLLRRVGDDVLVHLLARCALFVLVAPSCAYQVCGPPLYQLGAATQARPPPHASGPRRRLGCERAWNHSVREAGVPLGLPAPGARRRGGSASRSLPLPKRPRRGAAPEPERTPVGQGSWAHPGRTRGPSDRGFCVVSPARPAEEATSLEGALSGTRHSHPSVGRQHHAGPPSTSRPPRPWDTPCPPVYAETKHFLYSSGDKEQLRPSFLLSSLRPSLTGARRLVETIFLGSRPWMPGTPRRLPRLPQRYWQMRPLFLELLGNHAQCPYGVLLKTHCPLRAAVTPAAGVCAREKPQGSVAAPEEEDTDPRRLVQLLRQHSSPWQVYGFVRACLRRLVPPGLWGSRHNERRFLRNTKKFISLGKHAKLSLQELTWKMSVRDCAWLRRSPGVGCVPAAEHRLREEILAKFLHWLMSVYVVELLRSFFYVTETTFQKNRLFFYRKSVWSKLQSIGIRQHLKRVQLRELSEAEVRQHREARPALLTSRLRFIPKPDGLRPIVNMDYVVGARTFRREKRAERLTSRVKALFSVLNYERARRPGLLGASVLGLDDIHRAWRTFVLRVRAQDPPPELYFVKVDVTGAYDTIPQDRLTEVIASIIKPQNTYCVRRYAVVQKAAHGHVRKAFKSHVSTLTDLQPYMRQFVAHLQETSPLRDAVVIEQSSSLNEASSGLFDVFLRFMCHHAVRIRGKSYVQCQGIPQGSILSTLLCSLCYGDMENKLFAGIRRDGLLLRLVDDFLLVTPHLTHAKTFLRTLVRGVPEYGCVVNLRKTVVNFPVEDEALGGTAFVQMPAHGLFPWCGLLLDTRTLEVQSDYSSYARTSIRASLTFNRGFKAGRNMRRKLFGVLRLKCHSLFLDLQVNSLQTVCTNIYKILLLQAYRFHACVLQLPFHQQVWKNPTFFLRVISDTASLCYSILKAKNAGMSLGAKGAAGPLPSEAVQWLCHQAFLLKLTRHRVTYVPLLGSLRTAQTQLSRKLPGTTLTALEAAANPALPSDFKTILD
The target in assay [3] is T1, GST (glutathione-S-transferase alone, …). The assay can be described thus: GST pulldown from HeLa lysates, immunoblot with anti-HA. The protocol:
as §1, with “control. […]” for “control.”

T1 sequence (P08515 whole entry): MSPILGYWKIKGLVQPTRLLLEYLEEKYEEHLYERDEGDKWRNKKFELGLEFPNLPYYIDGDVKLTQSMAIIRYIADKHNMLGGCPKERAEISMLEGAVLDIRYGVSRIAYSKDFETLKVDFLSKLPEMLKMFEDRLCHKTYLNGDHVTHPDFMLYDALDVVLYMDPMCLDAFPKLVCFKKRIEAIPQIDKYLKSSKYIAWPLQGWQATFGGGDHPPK

B1: GFP fusion of the PinX1 C-terminal 142-328 amino acid fragment (other)
chain: DLDCIFGKRQSKKTPEGDASPSTPEENETTTTSAFTIQEYFAKPVAALKNKPQVPVPGSDISETQVERKRGKKRNKEATGKDVESYLQPKAKRHTEGKPERAEAQERVAKKKCAPAEKQLRGPCWDQSSKASAQDAGDHVQPPEGRDFTLKPKKRRGKKKLQKPVEIAEDATLEETLVKKKKKKDSK
notes: Expressed in HeLa cells; not shown: GFP fusion partner
As to B1, in assay [1], the binding result is “no binding (tested: 1 µM)”.

B2: GFP fusion of the N-terminal 142 amino acid fragment of PinX1 (other)
chain: MSMLAERRRKQKWAVDPQNTAWSNDDSKFGQRMLEKMGWSKGKGLGAQEQGATDHIKVQVKNNHLGLGATINNEDNWIAHQDDFNQLLAELNTCHGQETTDSSDKKEKKSFSLEEKSKISKNRVHYMKFTKGKDLSSRSKTD
notes: Expressed in HeLa cells; also called GFP-PinX1-N; PinX1-N; not shown: GFP fusion partner
As to B2, the binding result (in assay [1]; with GST-Pin2) was “no binding (tested: 1 µM)” each time.

B3: GST-PinX1-C (GST fusion of the C-terminal 74 amino acid fragment of PinX1, the telomerase inhibitory domain TID) (other, not shown: a dimerising Fc or GST)
chain: CAPAEKQLRGPCWDQSSKASAQDAGDHVQPPEGRDFTLKPKKRRGKKKLQKPVEIAEDATLEETLVKKKKKKDSK
Turning to B3, the “IC50 of inhibition of telomerase activity in vitro (TRAP assay)” value in assay [2] was about 50 nM.

B4: GFP fusion of the PinX1 254-328 amino acid fragment (other)
chain: CAPAEKQLRGPCWDQSSKASAQDAGDHVQPPEGRDFTLKPKKRRGKKKLQKPVEIAEDATLEETLVKKKKKKDSK
notes: Expressed in HeLa cells; also called GFP-PinX1-C; C-terminal 74 amino acid fragment; not shown: GFP fusion partner
Turning to B4, the binding result in assay [1] is “no binding (tested: 1 µM)”.

B5: GST-PinX1 (N-terminal GST fusion of full length PinX1) (other, not shown: a dimerising Fc or GST)
chain: MSMLAERRRKQKWAVDPQNTAWSNDDSKFGQRMLEKMGWSKGKGLGAQEQGATDHIKVQVKNNHLGLGATINNEDNWIAHQDDFNQLLAELNTCHGQETTDSSDKKEKKSFSLEEKSKISKNRVHYMKFTKGKDLSSRSKTDLDCIFGKRQSKKTPEGDASPSTPEENETTTTSAFTIQEYFAKPVAALKNKPQVPVPGSDISETQVERKRGKKRNKEATGKDVESYLQPKAKRHTEGKPERAEAQERVAKKKCAPAEKQLRGPCWDQSSKASAQDAGDHVQPPEGRDFTLKPKKRRGKKKLQKPVEIAEDATLEETLVKKKKKKDSK
Turning to B5, the “IC50 of inhibition of telomerase activity in vitro (TRAP assay)” value in assay [2] is about 50 nM.

B6: HA-PinX1 (PinX1 with an N-terminal HA epitope tag) (other, not shown: small tags and cut ends)
chain: MSMLAERRRKQKWAVDPQNTAWSNDDSKFGQRMLEKMGWSKGKGLGAQEQGATDHIKVQVKNNHLGLGATINNEDNWIAHQDDFNQLLAELNTCHGQETTDSSDKKEKKSFSLEEKSKISKNRVHYMKFTKGKDLSSRSKTDLDCIFGKRQSKKTPEGDASPSTPEENETTTTSAFTIQEYFAKPVAALKNKPQVPVPGSDISETQVERKRGKKRNKEATGKDVESYLQPKAKRHTEGKPERAEAQERVAKKKCAPAEKQLRGPCWDQSSKASAQDAGDHVQPPEGRDFTLKPKKRRGKKKLQKPVEIAEDATLEETLVKKKKKKDSK
notes: Expressed in HeLa or HT1080 cells; also called transfected PinX1 protein; 50 kDa HA-PinX1 protein
On to B6, for which the “fold decrease in telomerase activity in stable HT1080 cells (TRAP assay)” value in assay [2] is about 5 fold. The binding result in assay [3] was “no binding (tested: 1 µM)”.

B7: GFP-PinX1 (full length PinX1 as a GFP fusion protein) (other)
chain: MSMLAERRRKQKWAVDPQNTAWSNDDSKFGQRMLEKMGWSKGKGLGAQEQGATDHIKVQVKNNHLGLGATINNEDNWIAHQDDFNQLLAELNTCHGQETTDSSDKKEKKSFSLEEKSKISKNRVHYMKFTKGKDLSSRSKTDLDCIFGKRQSKKTPEGDASPSTPEENETTTTSAFTIQEYFAKPVAALKNKPQVPVPGSDISETQVERKRGKKRNKEATGKDVESYLQPKAKRHTEGKPERAEAQERVAKKKCAPAEKQLRGPCWDQSSKASAQDAGDHVQPPEGRDFTLKPKKRRGKKKLQKPVEIAEDATLEETLVKKKKKKDSK
notes: as for B1
For the molecule B7, in assay [1], the binding result is recorded as “no binding (tested: 1 µM)”.

Values taken from patent US20040142357A1 (BETH ISRAEL DEACONESS MEDICAL CENTER, published 2004).
